The text below walks through data of patent publication US9675675B2, “Microneedle device having a peptide therapeutic agent and an amino acid, methods of making and using the same” (3M INNOVATIVE PROPERTIES COMPANY, priority 2011, dated 2017).

Data set [1] in a line: Storage stability of lysozyme in dried coating on microneedle arrays, HPLC content. In kind it is physicochemical. Conditions: 10 mg/mL lysozyme in PBS; for Percent of Initial Lysozyme Content in the Coating, Initial: freshly coated reference standard, about 4° C.; for Percent of Initial Lysozyme Content in the Coating, Day 1 / Percent of Initial Lysozyme Content in the Coating, Day 3 / Percent of Initial Lysozyme Content in the Coating, Day 7 / Percent of Initial Lysozyme Content in the Coating, Day 14: stored 40° C., 96% RH. How it is done: (§1) The protein or polypeptide content in the formulation coated on the microneedle arrays was determined using an Agilent 1100 HPLC system (Agilent Technologies, Wilmington, Del.) equipped with a binary pump, well-plated thermostated autosampler, thermostated column compartment, and a diode array UV detector. A Zorbax 300SB-C8 column (Agilent Technologies, Wilmington, Del.) having a 5 μm particle size and 2.1×150 mm inner diameter was used for the separations. The column was maintained at 50° C. The mobile phase consisted of two eluents. Eluent A was 0.1% TFA (trifluoroacetic acid) in water and eluent B was 0.1% TFA in acetonitrile (Spectrum Chemical, New Brunswick, N.J.). A linear gradient from 80/20 to 50/50 (A/B) was applied over 30 minutes. The flow rate was 0.4 mL/minute and the UV detection wavelength was set at 214 nm. The total run time was 34 minutes and the sample injection volume was 15 μL.
A sample formulation containing 10 mg/mL of lysozyme and 12 mg/mL of L-histidine monohydrochloride (His-HCl) in PBS was prepared. The pH of the sample formulation was 5.5-6.0. A control formulation was also prepared containing 10 mg/mL of lysozyme in PBS. […] The pH of the control formulation was 6.5. Microneedle arrays were coated with either the sample or the control formulation. The coating was applied by dropwise addition of 50 μL of the formulation to the portion of the array defined by the octagon shaped pattern of microneedles. The flood coated arrays (both sample and control formulation coated) were dried in an oven at 35° C. for about 15 hours.
After drying, the coated arrays were placed in a storage chamber that was maintained at 40° C. and 96% relative humidity (RH). The lysozyme content of the coated arrays was determined following storage in the chamber for 1, 3, 7, and 14 days. At the designated time point, an array was taken from the chamber and washed with PBS (2 mL) to remove the coating from the array. An aliquot of the resulting wash solution was analyzed for lysozyme content using the HPLC method described above. Reference standards were prepared by measuring the lysozyme content of freshly coated arrays (both sample and control formulation coated). The arrays used as reference standards were stored in a refrigerator at about 4° C. and analyzed within one day of being prepared. The percentage of undegraded lysozyme remaining in the coating at each time point was determined by measuring the peak area for lysozyme in the selected coating and dividing it by the peak area measured for lysozyme in the corresponding reference standard.
The same procedure as described in Example 7 was used with the exception that the sample formulation contained 12 mg/mL of L-arginine hydrochloride, instead of L-histidine monohydrochloride. The pH of the sample formulation was 6.5.

Data set [2] can be described thus: Storage stability of insulin in dried coating on microneedle arrays, HPLC content. Conditions: 5 mg/mL insulin in 0.1 N acetic acid, pH 3.0-3.5; for Percent of Initial Insulin Content in the Coating, Initial: freshly coated reference standard, about 4° C.; for Percent of Initial Insulin Content in the Coating, Day 1 / Percent of Initial Insulin Content in the Coating, Day 3 / Percent of Initial Insulin Content in the Coating, Day 7 / Percent of Initial Insulin Content in the Coating, Day 14: stored 40° C., 96% RH. In kind it is physicochemical. The procedure: as §1
The pH of the sample formulation was 3.0-3.5. […] The pH of the control formulation was 3.0-3.5. Microneedle arrays were coated with either the sample or the control formulation. The coating was applied by dropwise addition of 50 μL of the formulation to the portion of the array defined by the octagon shaped pattern of microneedles. The flood coated arrays (both sample and control formulation coated) were dried in an oven at 35° C. for about 15 hours.
After drying, the coated arrays were placed in a storage chamber that was maintained at 40° C. and 96% relative humidity (RH). […] At the designated time point, an array was taken from the chamber and washed with 0.1 N acetic acid (1 mL) to remove the coating from the array. […] The arrays used as reference standards were stored in a refrigerator at about 4° C. and analyzed within one day of being prepared.
[…] The pH of the sample formulation was 3.0-3.5.

[3] abbreviates: Amino acid: L-Arginine (12 mg/mL Arg-HCl), pH 6.5.
The mark [4] stands for this setting: Amino acid: L-Histidine (12 mg/mL His-HCl), pH 5.5-6.0.
Setting [5] is: Amino acid: None (control), pH 6.5.
The mark [6] stands for this setting: Amino acid: L-Arginine (12 mg/mL Arg-HCl).
The mark [7] stands for this setting: Amino acid: L-Histidine (12 mg/mL His-HCl).

For lysozyme, in data set [1] (setting [3]), the “Percent of Initial Lysozyme Content in the Coating, Initial” value came out at 100%; the “Percent of Initial Lysozyme Content in the Coating, Day 1” value is 52.6%; the “Percent of Initial Lysozyme Content in the Coating, Day 3” value worked out at 33.1%; the “Percent of Initial Lysozyme Content in the Coating, Day 7” value was found to be 22.4%. Also, in data set [1] (setting [3]), the “Percent of Initial Lysozyme Content in the Coating, Day 14” value is on record as 23.0%. In data set [1] (setting [4]), the “Percent of Initial Lysozyme Content in the Coating, Initial” value was determined as 100%; the “Percent of Initial Lysozyme Content in the Coating, Day 1” value is 100.0%; the “Percent of Initial Lysozyme Content in the Coating, Day 3” value came out at 80.6%; the “Percent of Initial Lysozyme Content in the Coating, Day 7” value was found to be 60.1%. Moreover, the “Percent of Initial Lysozyme Content in the Coating, Day 14” value in data set [1] (setting [4]) was 53.3%. Besides, in data set [1] (setting [5]), the “Percent of Initial Lysozyme Content in the Coating, Initial” value is recorded as 100%; the “Percent of Initial Lysozyme Content in the Coating, Day 1” value was 26.9%; the “Percent of Initial Lysozyme Content in the Coating, Day 3” value was 4.4%; the “Percent of Initial Lysozyme Content in the Coating, Day 7” value was 1.9%. Also, in data set [1] (setting [5]), the “Percent of Initial Lysozyme Content in the Coating, Day 14” value was 1.9%.
For Insulin, in data set [2] (setting [6]), the “Percent of Initial Insulin Content in the Coating, Initial” value is 100%; the “Percent of Initial Insulin Content in the Coating, Day 1” value worked out at 75.4%; the “Percent of Initial Insulin Content in the Coating, Day 3” value is 45.9%; the “Percent of Initial Insulin Content in the Coating, Day 7” value stood at 27.1%. In addition, in data set [2] (setting [7]), the “Percent of Initial Insulin Content in the Coating, Initial” value is on record as 100%; the “Percent of Initial Insulin Content in the Coating, Day 1” value was 95.3%; the “Percent of Initial Insulin Content in the Coating, Day 3” value is 93.5%; the “Percent of Initial Insulin Content in the Coating, Day 7” value is 79.2%. In data set [2] (setting [7]), the “Percent of Initial Insulin Content in the Coating, Day 14” value is 34.9%. For the same substance, in data set [2] (Amino acid: None (control)), the “Percent of Initial Insulin Content in the Coating, Initial” value turned out to be 100%; the “Percent of Initial Insulin Content in the Coating, Day 3” value came to 0%; the “Percent of Initial Insulin Content in the Coating, Day 7” value came to 0%; the “Percent of Initial Insulin Content in the Coating, Day 14” value is 0%.
